Molecular target: the molecule itself
Assay: native MS; proteins buffer-exchanged into 0.2 M ammonium acetate (pH 7); Q-Exactive Plus Orbitrap, collision voltage 20 V; room temperature; self-association (dimer vs monomer)

B1: Fluoroacetate dehalogenase (FAcD), wild-type (enzyme, UniProt Q6NAM1 1-302, looked up)
chain: MPDLADLFPGFGSEWINTSSGRIFARVGGDGPPLLLLHGFPQTHVMWHRVAPKLAERFKVIVADLPGYGWSDMPESDEQHTPYTKRAMAKQLIEAMEQLGHVHFALAGHDRGARVSYRLALDSPGRLSKLAVLDILPTYEYWQRMNRAYALKIYHWSFLAQPAPLPENLLGGDPDFYVKAKLASWTRAGDLSAFDPRAVEHYRIAFADPMRRHVMCEDYRAGAYADFEHDKIDVEAGNKIPVPMLALWGASGIAQSAATPLDVWRKWASDVQGAPIESGHFLPEEAPDQTAEALVRFFSAAP
notes: Fluoroacetate dehalogenase (FAcD), gene Rpa1163, residues 1-302; His6-SUMO tag cleaved off by ULP1; Homodimer by native MS; also called WT; WT-Di; source: E. coli BL21(DE3), purified (nickel column, SEC); not shown: His6, N-terminal, cleaved; SUMO, N-terminal, cleaved
stoichiometry N: 2
